# Laboratory results as given in patent US7109015B2, “Removal of N-terminal methionine from proteins by engineered methionine aminopeptidase” (Academia Sinica, priority 2004, dated 2006).
# Where “and” joins values, the source holds several entries; their conditions need not be identical. Equal values may be shown once.
# Tested on: Met-tagged onconase
# Test: In vivo catalytic activity of MetAPs co-expressed with Met-tagged onconase in E. coli BL21(DE3); N-terminus by Edman degradation
# Assay type: cell-based
# From the text: Residues Tyr168, Met206 and Gln233 in the putative substrate-binding site of E. coli MetAP were mutated by site-directed mutagenesis based on the crystal structure and amino acid sequence alignment of MetAPs (Ben-Bassat et al., 1987; Lowther et al., 1999; Walker et al., 1999). For the expression of secretory ribonucleases, the ribonuclease gene was cloned and expressed as described previously (Huang et al., 1998).
# Most of the co-expressed target protein, e.g., onconase or RC-RNase L1, existed in insoluble cell lysate. They were denatured, renatured and purified as described previously (Liao et al., 2003). The purified ribonucleases were stored in 20 mM sodium phosphate, pH 7.0, for pyroglutamate formation at the N-terminus. Alternatively, the ribonuclease secreted into culture medium through pe1B system was concentrated and purified to electrophoretical homogeneity at a yield of 1˜5 mg per 1 liter of culture (Huang et al., 1998).
# [1] = substrate MAA-Onc, in vivo in E. coli
# [2] = substrate MAG-Onc, in vivo in E. coli
# [3] = substrate MAP-Onc, in vivo in E. coli
# [4] = substrate MLA-Onc, in vivo in E. coli
# [5] = substrate MLG-Onc, in vivo in E. coli
# [6] = substrate MLH-Onc, in vivo in E. coli
# [7] = substrate MLL-Onc, in vivo in E. coli
# [8] = substrate MLN-Onc, in vivo in E. coli
# [9] = substrate MLS-Onc, in vivo in E. coli
# [10] = substrate MLV-Onc, in vivo in E. coli
# [11] = substrate MQA-Onc, in vivo in E. coli
# [12] = substrate MQM-Onc, in vivo in E. coli
# [13] = substrate MQN-Onc, in vivo in E. coli
# [14] = substrate MQT-Onc, in vivo in E. coli
molecule,measurement,setting,value
MetAP-*TG (protein) AISIKTPEDIEKMRVAGRLAAEVLEMIEPYVKPGVSTGELDRICNDYIVNEQHAVSACLGYHGYPKSVCISINEVVCHGIPDDAKLLKDGDIVNIDVTVIKDGFHGDTSKMFIVGKPTIMGERLCRITQESLYLALRMVKPGINLREIGAAIQKFVEAEGFSVVREYCGHGIGRGFHEEPQVLHYDSRETNVVLKPGMTFTIEPTVNAGKKEIRTMKDGWTVKTKDRSLSAGYEHTIVVTDNGCEILTLRKDDTIPAIISHDE,Lower efficiency of Met removal with MetAP and target on separate vectors,"MQD-initiated onconase or GST, pET29b/pET22b versus same vector",10–15 % less
same,Catalytic activity (%): percent of penultimate residue removed,[1],25%
same,Catalytic activity (%): removal of N-terminal Met,[1],100%
same,Catalytic activity (%): removal of N-terminal Met,"substrate MAD-Onc, in vivo in E. coli",99% and 100%
same,Catalytic activity (%): removal of N-terminal Met,"substrate MAE-Onc, in vivo in E. coli",96%
same,Catalytic activity (%): removal of N-terminal Met,"substrate MAF-Onc, in vivo in E. coli",100%
same,Catalytic activity (%): percent of penultimate residue removed,[2],57%
same,Catalytic activity (%): removal of N-terminal Met,[2],80%
same,Catalytic activity (%): removal of N-terminal Met,"substrate MAK-Onc, in vivo in E. coli",100%
same,Catalytic activity (%): removal of N-terminal Met,"substrate MAL-Onc, in vivo in E. coli",100%
same,Catalytic activity (%): removal of N-terminal Met,"substrate MAM-Onc, in vivo in E. coli",96%
same,Catalytic activity (%): removal of N-terminal Met,"substrate MAN-Onc, in vivo in E. coli",100%
same,Catalytic activity (%): percent of penultimate residue removed,[3],38%
same,Catalytic activity (%): removal of N-terminal Met,[3],72%
same,Catalytic activity (%): removal of N-terminal Met,"substrate MAQ-Onc, in vivo in E. coli",97%
same,Catalytic activity (%): removal of N-terminal Met,"substrate MAR-Onc, in vivo in E. coli",94%
same,Catalytic activity (%): removal of N-terminal Met,"substrate MAV-Onc, in vivo in E. coli",100%
same,Catalytic activity (%): removal of N-terminal Met,"substrate MDD-Onc, in vivo in E. coli",68%
same,Catalytic activity (%): removal of N-terminal Met,"substrate MED-Onc, in vivo in E. coli",33%
same,Catalytic activity (%): removal of N-terminal Met,"substrate MFA-Onc, in vivo in E. coli",2%
same,Catalytic activity (%): removal of N-terminal Met,"substrate MFD-Onc, in vivo in E. coli",5%
same,Catalytic activity (%): removal of N-terminal Met,"substrate MGD-Onc, in vivo in E. coli",95%
same,Catalytic activity (%): removal of N-terminal Met,"substrate MHD-Onc, in vivo in E. coli",92%
same,Catalytic activity (%): removal of N-terminal Met,"substrate MIA-Onc, in vivo in E. coli",36%
same,Catalytic activity (%): removal of N-terminal Met,"substrate MID-Onc, in vivo in E. coli",22%
same,Catalytic activity (%): removal of N-terminal Met,"substrate MKA-Onc, in vivo in E. coli",2%
same,Catalytic activity (%): removal of N-terminal Met,"substrate MKD-Onc, in vivo in E. coli",3%
same,Catalytic activity (%): percent of penultimate residue removed,[4],100(100) %
same,Catalytic activity (%): removal of N-terminal Met,[4],100(100) %
same,Catalytic activity (%): removal of N-terminal Met,"substrate MLD-Onc, in vivo in E. coli",86% and 90%
same,Catalytic activity (%): percent of penultimate residue removed,[5],100(100) %
same,Catalytic activity (%): removal of N-terminal Met,[5],100(100) %
same,Catalytic activity (%): percent of penultimate residue removed,[6],36%
same,Catalytic activity (%): removal of N-terminal Met,[6],75%
same,Catalytic activity (%): percent of penultimate residue removed,[7],24%
same,Catalytic activity (%): removal of N-terminal Met,[7],88%
same,Catalytic activity (%): removal of N-terminal Met,"substrate MLM-Onc, in vivo in E. coli",100%
same,Catalytic activity (%): percent of penultimate residue removed,[8],58%
same,Catalytic activity (%): removal of N-terminal Met,[8],92%
same,Catalytic activity (%): removal of N-terminal Met,"substrate MLP-Onc, in vivo in E. coli",5%
same,Catalytic activity (%): percent of penultimate residue removed,[9],59%
same,Catalytic activity (%): removal of N-terminal Met,[9],82%
same,Catalytic activity (%): removal of N-terminal Met,"substrate MLT-Onc, in vivo in E. coli",91%
same,Catalytic activity (%): percent of penultimate residue removed,[10],27%
same,Catalytic activity (%): removal of N-terminal Met,[10],76%
same,Catalytic activity (%): removal of N-terminal Met,"substrate MMD-Onc, first Met, in vivo in E. coli",100%
same,Catalytic activity (%): percent of penultimate residue removed,"substrate MMD-Onc, second Met, in vivo in E. coli",73%
same,Catalytic activity (%): removal of N-terminal Met,"substrate MND-Onc, in vivo in E. coli",85%
same,Catalytic activity (%): removal of N-terminal Met,"substrate MPD-Onc, in vivo in E. coli",93%
same,Catalytic activity (%): percent of penultimate residue removed,[11],100(100) %
same,Catalytic activity (%): removal of N-terminal Met,[11],100(100) %
same,Catalytic activity (%): removal of N-terminal Met,"substrate MQD-Onc, in vivo in E. coli",91% and 90%
same,Catalytic activity (%): removal of N-terminal Met,"substrate MQD-Onc, in vivo in E. coli, listed as MetAP-M206T-Q233G",91%
same,Catalytic activity (%): removal of N-terminal Met,"substrate MQDWL (SEQ ID NO:10)-Onc, solubility −, same vector",91%
same,Catalytic activity (%): removal of N-terminal Met,"substrate MQDWL (SEQ ID NO:10)-Onc, solubility −, target in pET22b co-transformed with MetAP in pET29b",80%
same,Catalytic activity (%): removal of N-terminal Met,"substrate MQE-Onc, in vivo in E. coli",71%
same,Catalytic activity (%): removal of N-terminal Met,"substrate MQF-Onc, in vivo in E. coli",80%
same,Catalytic activity (%): removal of N-terminal Met,"substrate MQK-Onc, in vivo in E. coli",78%
same,Catalytic activity (%): percent of penultimate residue removed,[12],59%
same,Catalytic activity (%): removal of N-terminal Met,[12],100%
same,Catalytic activity (%): percent of penultimate residue removed,[13],65%
same,Catalytic activity (%): removal of N-terminal Met,[13],100%
same,Catalytic activity (%): removal of N-terminal Met,"substrate MQP-Onc, in vivo in E. coli",25%
same,Catalytic activity (%): removal of N-terminal Met,"substrate MQR-Onc, in vivo in E. coli",83%
same,Catalytic activity (%): percent of penultimate residue removed,[14],26%
same,Catalytic activity (%): removal of N-terminal Met,[14],76%
same,Catalytic activity (%): removal of N-terminal Met,"substrate MQW-Onc, in vivo in E. coli",95%
same,Catalytic activity (%): removal of N-terminal Met,"substrate MRA-Onc, in vivo in E. coli",2%
same,Catalytic activity (%): removal of N-terminal Met,"substrate MRD-Onc, in vivo in E. coli",2%
same,Catalytic activity (%): removal of N-terminal Met,"substrate MSD-Onc, in vivo in E. coli",99%
same,Catalytic activity (%): removal of N-terminal Met,"substrate MTD-Onc, in vivo in E. coli",85%
same,Catalytic activity (%): removal of N-terminal Met,"substrate MVD-Onc, in vivo in E. coli",80%
same,Catalytic activity (%): removal of N-terminal Met,"substrate MWA-Onc, in vivo in E. coli",2%
same,Catalytic activity (%): removal of N-terminal Met,"substrate MWD-Onc, in vivo in E. coli",2%
same,Catalytic activity (%): removal of N-terminal Met,"substrate MWD-Onc, in vivo in E. coli, listed as *TG",inactive
same,Catalytic activity (%): removal of N-terminal Met,"substrate MYA-Onc, in vivo in E. coli",8%
same,Catalytic activity (%): removal of N-terminal Met,"substrate MYD-Onc, in vivo in E. coli",1%
same,Catalytic activity (%): removal of N-terminal Met,"substrate MYD-Onc, in vivo in E. coli, listed as *TG",inactive
